In the domain aggregation screens of Martell et al. (2025):

test: soluble fraction after stress (log2 fold change); higher = more stays soluble; pooled small domains, quantitative proteomics; conditions: stress: 75 degC
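Note: 20 min heating vs room temperature control held 20 min.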

| Sequence | soluble fraction (log2) |
| --- | --- |
| HMKAPLTFVIEGKEYEAFDQYKTGAELKQLAGIPLDTELFLSISKPYQDELIENEKQVNLARPETEYFFVK | 0.522 |
| HMKAQTVPQFVGMTMTEAEEKASELGITLIEGAVVDSVEPKDTILTQDVDEGTEITGKMEIMVTISS | 0.324 |
| HMKARLRRVFQIYYGDAYSIMKALKETFPLQTIVHEPRTNSIVVDTPDEETATKIGDVVSAL | -0.771 |
| HMKDANIQIGKRLREARLNMNLEKSEIADVLGVTVEHYRKLEAGVMGISVDKVLTLYHKYGIDPTYLITG | -3.36 |
| HMKDEGSLKVIGQMVVIGIPQSEAKRFANTYTVAQIRAALQYTQKRSEDKNASKLENVAAYFRQALVRNWG | -2.57 |
| HMKDHKSKWMAKTELDSIAKNLSKKHAISLDYEEDGTRFYAGGQSPLGIGRLFTVFVAPRNGHWSDQLR | 0.194 |
| HMKDLIGEAKAKELALGHAKLSASDVTFIHVELDWENGRRVYDVEFYSGAKEYDYEIDAKTGEIVSFDY | -1.23 |
| HMKDLQHLVGEKGTTVTPLRPSGIALIKGSRYDVVSEGSFIQQGVAVEVIKVEGRRVVVSPLQED | -0.722 |
| HMKDLSMPDVMGSSLNDAKKALTELGIMDITVRYVESGSSEGSIVGMEPPAGSKFAADGKVVLQVSSGS | 0.542 |
| HMKDMKISTQNILKELATNYPDQTAFRKNVIESTAKSMGYTGKDFYPMLTAETRVKIGTYDLSALLQTV | -0.38 |
| HMKDPSFELMSVAESFYRSGNVDHAVYALEKYLEVYADGDYTDRAHDLLSQARKGLTYPHGYPPLQI | -1.26 |
| HMKDRDISNAVLNILSKDSDHNYNYKQIASVLGVKDPFVRKRIVSVLAQLTKNGQLEEISRGKYQIKN | -0.478 |
| HMKDRNISSSVLEILSKDPDHTYNYKQIAALLGVKDAFIRKRIVTLLAQLAKDGHLDEISRGKYQIK | -1.22 |
| HMKDVVAPMSGRVVRLMVAAGDEVVKRQALVVVEAMKMENVLTAPKEGRIKKVPVREGMTVEVGQTLVSFE | -1.88 |
| HMKDYKSALQELIQSGDKRVISYHTLKETGPSHNREFEAAVKLDGNIILGVGKGKTKKEAEQNAAHEALKK | -0.0221 |
| HMKDYKSSLQERVQAVGGGQLIYRVNREEGPDHSKTFYMDLFLGDRLIGTGSGRNKKQAEQQAAKEAIERG | -0.283 |
| HMKDYKTIFQELIQKKHKTSPIYKSYEYNDMFKAEVYVNDKSFADGIGKSKKEAETDAAKKALEKIEMA | -0.0428 |
| HMKDYQGEISVVASGERIDVYLFNYFNLFSRTKIKNHIKNGNILVNENIISPSYILKQNDKIAFNLGAPY | -2.27 |
| HMKDYQGNILIQSEGDRIDKFLFKYFNSFSRTKIKNHIINGNILVNDKNTIPAYVLKINDKISYDLSTSVK | -1.9 |
| HMKEAITVIGGKNNITFDASAQAEIGIYSMDGVQIQKKTISDNERIDLPAGMYVVTVKTGQANVSKVVVV | -0.553 |
| HMKEDSTIIERIISNLSSASLKTQKAFEYKLTDLMFRFSEGEYEWSSAMEVIREELLPFLNK | 0.0891 |
| HMKEETEMVTIPDVTGKPLTEAANLLREAKLDYLAESTGTSVTKQMPLPGAEVMVNTTVLLYTG | 0.157 |
| HMKEEVMVPNVVGKELSAALLEMQVKELYPKLQLKYSNFVDDKGTVLEQSPPAGSIVKAGRRINLVVSRGA | 0.106 |
| HMKEIKAPNKINAHLIEEWRSQHPTELFPEEKVDLIYYKGEEYYFVIEEKNELGEIEEWYFAYDGGIDYV | 0.372 |

| Sequence | soluble fraction (log2) |
| --- | --- |
| HMKEILTNESIIQFVKDKVSEEQIIYKINNSPIDFKLDVNSMVSLAKQNVSSTIIIAMENAMNN | -1.28 |
| HMKELLQEMIMDILRAIASPNIDIKRKTLDLVLDLITPRNIDNVTGMLKTEVVKSQSENTSDVG | -1.58 |
| HMKELTYSDFRKAYPDIQGNLFGMAERYITALDWTEVAAKVETDEELRKERDIFYLVKTYIRKYVQ | -1.86 |
| HMKELVAGQTVRVHHSIGFGQTGTVTALNSLKTTLPNGLRTNTASILFQNNEKVVLPISNFDIIES | -0.0164 |
| HMKELVEDFASRISNARQSKGWNQSELAKRMAETVNVVKSAESGKSPTDSVIKKLERVLGIILM | -0.778 |
| HMKEQLITVYVSGAVARPGLYELPAGIRAQEAVEAAGGFTEAANHEKVNLAKKLKDGSQVNVPALK | -0.122 |
| HMKEQYDLNDREQQFISLVANGLNNKEIAETLFLSEGTVRNYLSNLLDKLGLRDRTQLAIFFYQHL | -2.01 |
| HMKERLLDPYKDFIVNYLQKYPYTPAAVMHDKLKESYPDFPKVDPKTIYNFVMLLRRDFNIPKV | -0.842 |
| HMKETERKILQAVLGLPLKYRDVIHLFYYEEMSVKEIAEVLHRQESTVTSQLTRARGILKKNL | 0.264 |
| HMKETLSDTVSRKLEDMITTQMKAGNRLPTEMVLAEMYSVGRSTIRESLKALSSKGLIVRKKDGTFVSDRV | -0.422 |
| HMKEVKAPMPGMVLRVEVAPGQEVQEGDPLLVLEAMKMENNLKSPASGTIKSVHVEAGKAVEKGAVLVVF | -0.0661 |
| HMKEVKRDQVIEAARKLFHQFGFKKVSMDEIAKEAGVTKKTIYMYFESKEELLKYFIQEEISN | -0.373 |
| HMKEVVKVTITPSEKLKSQYPDALVSIDGKFYDLGILNNPVEFYMDKDHKISIIWSTAELVESFRI | -0.000631 |
| HMKEYRKEGHLYFVTEDRNNEIYLWDFTDKPKHEFKEIITSVELQKVAKEGAMLQYKNGKYELYS | -0.78 |
| HMKFDVNAAIRAVLNVTVDKGATLERIMKETNLTSDQLVLPIALLMKTERLHFKRSGTHEVYVSVGKAPDK | -3.79 |
| HMKFGEQIKERRQELDLTQAEVAEKLFVTRQAVSNWEHNKTYPDLNMLVKISNVYQISLDSLLR | -1.37 |
| HMKFHENLIALRRREGWSQEELGNRIGVTRQTVSKWELGLTTPELEKLVQLADVFGMTTDQLVGR | -0.295 |
| HMKFNLWLSEKLKKLGLTQRKLAEQAGVSPATVSRWLSGEFEPDLTNLRKINQVLGVPERELFLQLGL | -0.193 |
| HMKFPNVGENLRLLRQEMGISLDKASKMTGVSKAMLGQIERGESSPTVSTLWKISSGFKINFTTLLSE | -2.92 |
| HMKFPPASDIRRMRKAIDVTQTELAKQSGVSQSTIAKIERGRISASYDTVVKLFETLDEMAK | -0.405 |
| HMKFTPPTLEQIKNEMLLKTDEYNADIQSDRFFTYYDSNGWMVGKNKMKKFLVSLVAVFAATSA | -0.786 |
| HMKFYIHEIIGFNAVDKVAGIVGKVININEDSPQKKLVVNYNGKEVFIPLVDEIVRKIDKQKNEVLITMP | 0.00585 |
| HMKGEIEELLYEEVTKDNNTTFLRIYIKLNDEYNTLLNLGIIGIKTEEKVNELVNLGYKKVL | -4.19 |
| HMKGISRVTMELIIDALKKETEPRTVQWIAEKTGLATQTTYRYLQYMVSEQTVEALNVYGKVVSLKAK | -0.649 |

| Sequence | soluble fraction (log2) |
| --- | --- |
| HMKGKWKPIILWQLSKAPQSLSGLRHSIAGISQKMLIQHLNELIHFGFVVRTTFEGYPLKVEYDLTDRGR | -0.196 |
| HMKGLDAAVVDLFKSKGASIVFAGNRLSLSGEVADQATKDELLAKAKAILASLGASVSLDDKLMVKGAKAS | 0.0761 |
| HMKGMIKVASMSLGADLGLYSRHLKYLGIVHRVVEESGGQSVYIQKLNDLHTAKESLELYLKNELKI | -2.56 |
| HMKGQNRSEITAGARVKVVQKQDQRTGALTEGIVRDILTRSPHHPHGIKVRLESGIVGRVKDVL | -0.312 |
| HMKGSIMIETILKELKKNNKGFNFLLEKFDISEDELMKIINDLIHDKKVFLNSNNKYEIVSD | -0.72 |
| HMKGTVLAPGIILNADDQRFTYLQEDVASVAKDGAAIVLKQGDEVDFIADGQTAKQIYLTKT | 0.289 |
| HMKGVPGIGDYVKLSGGSTVGKVLSISGKKAEVAFGLLRTTTELSKLEKVRKPKELLQSGVSS | -0.0317 |
| HMKGVTVDGDNITVDGEKQTLISVNKNLDGDVVSYTYRTADGKLRTSRNVEVAQEINKQQLLKSIDAQ | 0.0529 |
| HMKGWPDREQAEKIWQQGIDYAIEHHTMSPQIVKEYIFHTQGIARSAALIAARLPDMDTEKAYVLGLLHD | -0.377 |
| HMKIAEALNLRGDADSYERQEAIWLLEHIVGMSALELKYRGEQDLTEDQLQQYRSGLQRLEQGEPLAYVIG | -0.965 |
| HMKIDLKQIEGVLDELAKVKGSLITILQKTQETYGYLPKEAIIYISERTGIAESEIMGVATFYTQFRL | -0.45 |
| HMKIDLTPQEEKIYSVLETELTLDEIIMKTSIKAGEALAILMDLELKKLVASVAGGKYRRKA | 0.386 |
| HMKIEETLGKTAQVYIPIPQYLSGIGKVTLSVRGSLRELDAMTEEEKIPSNTIVRIVKVQDQVLFVKRA | -3.77 |
| HMKIHNSIREITDFDRKQNSNIPSDAKYRIVFYTPQGNKTIIPEELQGLQYYRSKELAEIALNKKLNSN | -0.197 |
| HMKILKQLEAIIEKEGLNESAKQFYLREISELDKEKQQEIINLVDKMEQAGFKNNLASAFSEVTEDIPQF | -0.138 |
| HMKILNYQSLVGKKGITKSMLRPAGIVEIEGRRYDVVTRGEFIEPGKMITVDEVQGNRIIVQIERE | -0.758 |
| HMKIPIIYQPLKNAKRIKIYIPYELKELRTIFKKINTTFWHPNQKLWSIIYTQENVALIKNLFGKNYKIVN | -0.499 |
| HMKIQEVDYSTFLNMLNEKSIAQVEIQDNQIAFNSNQEGNKQIYVTGRIEEDTELVNRLQAAGVQFSRV | 0.0484 |
| HMKIRIIKTASNAKAVQIVSYKNNKRIVLQHIGSAHTDETLNDLKILAEEWIKDYNHQLSIF | -2.88 |
| HMKISDLPAAQVYREIVHAWPKAAAYADLAPINNGGMQRWRDVVHEWVLRGYNPANLRGMLEWYKAGIPTR | -0.731 |
| HMKISDMIETNLKFLRGKHSISQAELAESLGIPRTTLSAYERGFVEPNIELMLKMAKYFNVSLDDLIAYN | -2.07 |
| HMKISQSRKAGKLVLESELKRGGVSLDQYRGGRMSRILELIGVKSLNELLTDLGTGKKTGALVAERFFSGL | -0.618 |
